Assay results: patent US20230136301A1, “Corticosteriod Reduction in Treatment with Anti-CD38 Antibody” (Janssen Biotech, Inc., priority 2021, published 2023)
Where “and” joins values, the source holds several entries; their conditions need not be identical. Equal entries are not always repeated.

Test system: patients with RRMM
Test: PAVO Part 3: treatment-emergent adverse events with DARA SC and corticosteroid tapering
Experimental: The PAVO (MMY1004) trial is an open-label, nonrandomized, multicenter, phase lb study consisting of 3 parts. […] Safety was assessed, with an emphasis on IRRs, while corticosteroids were reduced and discontinued.
The purpose of Part 3 was to evaluate the safety of daratumumab 1,800 mg SC delivery without predose and postdose corticosteroids after a 3-week, 2-week, and 1-week tapering schedule to assess the safety of corticosteroid-free SC daratumumab administration. A total of 42 participants were treated. […] In conjunction, patients also received a 3-week, 2-week, or 1-week steroid tapering schedule (FIG. 2). The 3-week tapering schedule (corticosteroid-free by Cycle 1 Day 22) consisted of methylprednisolone (MP) given orally (PO)/IV pre-dose (Cycle 1 Day 1, 100 mg; Cycle 1 Day 8, 60 mg; Cycle 1 Day 15, 30 mg) and PO post-dose (Cycle 1 Day 1, 20 mg for 2 days; Cycle 1 Day 8, 20 mg for 1 day; Cycle 1 Day 15, 20 mg for 1 day). The 2-week tapering schedule (corticosteroid-free by Cycle 1 Day 15) consisted of MP given PO/IV pre-dose (Cycle 1 Day 1, 100 mg; Cycle 1 Day 8, 60 mg) and PO post-dose (Cycle 1 Day 1, 20 mg for 2 days; Cycle 1 Day 8, 20 mg for 1 day). The 1-week tapering schedule (corticosteroid-free by Cycle 1 Day 8) consisted of dexamethasone 20 mg administered IV pre-dose on Cycle 1 Day 1, without post-dose administration.
The 3-week, 2-week and 1-week steroid tapering schedules were assessed by “3+3” design, followed by cohort expansion to approximately 15 patients (3-week and 2-week tapering cohorts) or 12 patients (1-week tapering cohort). The dose-limiting toxicity (DLT) assessment period in the 3-week, 2-week and 1-week tapering cohorts were Cycle 1 Day 1 through Cycle 2 Day 4, Cycle 1 Day 1 through Cycle 1 Day 25, and Cycle 1 Day 1 through Cycle 1 Day 11, respectively. […] Grade 3 or 4 IRRs only qualified as DLTs if they occurred during corticosteroid reduction or discontinuation (not during Cycle 1 Day 1). For the 3-week and 2-week groups, IRRs reported at Cycle 1 Day 1 were not considered DLTs, as corticosteroids had not yet been reduced or discontinued. Up to approximately 12 patients could be enrolled in the 1-week tapering schedule to assess safety, including IRRs.
Safety assessments included treatment-emergent adverse events (TEAEs), serious adverse events, and IRRs. All toxicities were graded according to the National Cancer Institute's Common Terminology for the Classification of Adverse Events (NCI-CTCAE) Version 4.03 (National Cancer Institute. Common Terminology Criteria for Adverse Events (CTCAE): Version 4.03.).
The safety and efficacy populations, defined as all patients who received ≥1 dose of study drug, was the primary population for analysis. […] The pharmacokinetic-evaluable population was defined as all patients who received ≥1 dose of study drug and provided ≥1 post-infusion pharmacokinetic sample. The immunogenicity population was defined as all patients who received ≥1 dose of study drug and provided ≥1 post-infusion immunogenicity sample.

## DARA SC: 1,800 mg daratumumab co-formulated with 30,000 U rHuPH20 (2,000 U/mL, 15 mL), manual subcutaneous injection
1-week taper
  Grade ≥3 TEAEs, participants: 33.3%
  Nausea, participants: 16.7%
  Nervous system disorders: 16.7%
1-week taper n=12
  Anemia, any grade TEAE: 4 (33.3) n (%) and 4 (33.3%) n (%)
  Anemia, grade ≥3 TEAE: 2 (16.7%) n (%) and 2 (16.7) n (%)
  Any TEAE: 12 (100)^ n (%) and 12 (100.0%) n (%)
  Any grade ≥3 TEAE: 4 (33.3) n (%) and 4 (33.3%) n (%)
  Arthralgia, any grade TEAE: 3 (25.0) n (%) and 3 (25.0%) n (%)
  Asthenia, any grade TEAE: 4 (33.3) n (%) and 4 (33.3%) n (%)
  Back pain, TEAE: 2 (16.7%) n (%)
  Blood and lymphatic system disorders (SOC), TEAE: 4 (33.3%) n (%)
  Blood and lymphatic system disorders (SOC), grade 3 or higher TEAE: 2 (16.7%) n (%)
  Bone pain, TEAE: 2 (16.7%) n (%)
  Bone pain, grade ≥3 TEAE: 1 (8.3) n (%) and 1 (8.3%) n (%)
  Chills, TEAE: 2 (16.7%) n (%)
  Constipation, TEAE: 2 (16.7%) n (%)
  Cough, any grade TEAE: 0 n (%)
  Decreased appetite, TEAE: 1 (8.3%) n (%)
  Diarrhea, any grade TEAE: 4 (33.3) n (%) and 4 (33.3%) n (%)
  Dizziness, any grade TEAE: 0 n (%)
  Erythema, any grade TEAE: 0 n (%)
  Fatigue, any grade TEAE: 1 (8.3) n (%) and 1 (8.3%) n (%)
  Gastrointestinal disorders (SOC), TEAE: 8 (66.7%) n (%)
  General disorders and administration site conditions (SOC), TEAE: 9 (75.0%) n (%)
  Headache, any grade TEAE: 1 (8.3) n (%) and 1 (8.3%) n (%)
  Lymphopenia, grade ≥3 TEAE: 1 (8.3) n (%) and 1 (8.3%) n (%)
  Metabolism and nutrition disorders (SOC), TEAE: 1 (8.3%) n (%)
  Muscle spasms, any grade TEAE: 3 (25.0) n (%)
  Musculoskeletal and connective tissue disorders (SOC), TEAE: 8 (66.7%) n (%)
  Musculoskeletal and connective tissue disorders (SOC), grade 3 or higher TEAE: 1 (8.3%) n (%)
  Nasopharyngitis, any grade TEAE: 1 (8.3) n (%) and 1 (8.3%) n (%)
  Nausea, any grade TEAE: 2 (16.7) n (%) and 2 (16.7%) n (%)
  Nervous system disorders (SOC), TEAE: 2 (16.7%) n (%)
  Neutropenia, grade ≥3 TEAE: 0 n (%)
  Oropharyngeal pain, TEAE: 0 n (%)
  Pain in extremity, any grade TEAE: 3 (25.0) n (%) and 3 (25.0%) n (%)
  Patients with a serious TEAE: 4 (33.3%) n (%)
  Peripheral edema, any grade TEAE: 4 (33.3) n (%) and 4 (33.3%) n (%)
  Pyrexia, any grade TEAE: 3 (25.0) n (%) and 3 (25.0%) n (%)
  Respiratory, thoracic and mediastinal disorders (SOC), TEAE: 1 (8.3%) n (%)
  Skin and subcutaneous tissue disorders (SOC), TEAE: 0 n (%)
  Vomiting, TEAE: 2 (16.7%) n (%)
1-week taper, neither treatment-related
  TEAEs with an outcome of death: 2 participants
1-week taper, staphylococcal pneumonia and pulmonary embolism
  Grade 5 TEAEs: 2 (16.7%) n (%)
2-week taper
  Grade ≥3 TEAEs, participants: 53.3%
  Nausea, participants: 20%
  Nervous system disorders: 26.7%
  TEAEs with an outcome of death: No deaths
2-week taper n=15
  Anemia, any grade TEAE: 2 (13.3) n (%) and 2 (13.3%) n (%)
  Anemia, grade ≥3 TEAE: 1 (6.7) n (%) and 1 (6.7%) n (%)
  Any TEAE: 15 (100)^ n (%) and 15 (100.0%) n (%)
  Any grade ≥3 TEAE: 8 (53.3) n (%) and 8 (53.3%) n (%)
  Arthralgia, any grade TEAE: 4 (26.7) n (%) and 4 (26.7%) n (%)
  Asthenia, any grade TEAE: 2 (13.3) n (%) and 2 (13.3%) n (%)
  Back pain, TEAE: 3 (20.0%) n (%)
  Blood and lymphatic system disorders (SOC), TEAE: 3 (20.0%) n (%)
  Blood and lymphatic system disorders (SOC), grade 3 or higher TEAE: 3 (20.0%) n (%)
  Bone pain, TEAE: 3 (20.0%) n (%)
  Bone pain, grade ≥3 TEAE: 1 (6.7) n (%) and 1 (6.7%) n (%)
  Chills, TEAE: 1 (6.7%) n (%)
  Constipation, TEAE: 3 (20.0%) n (%)
  Cough, any grade TEAE: 4 (26.7) n (%) and 4 (26.7%) n (%)
  Decreased appetite, TEAE: 1 (6.7%) n (%)
  Diarrhea, any grade TEAE: 3 (20.0) n (%) and 3 (20.0%) n (%)
  Dizziness, any grade TEAE: 1 (6.7) n (%) and 1 (6.7%) n (%)
  Erythema, any grade TEAE: 4 (26.7) n (%) and 4 (26.7%) n (%)
  Fatigue, any grade TEAE: 4 (26.7) n (%) and 4 (26.7%) n (%)
  Gastrointestinal disorders (SOC), TEAE: 7 (46.7%) n (%)
  General disorders and administration site conditions (SOC), TEAE: 10 (66.7%) n (%)
  Headache, any grade TEAE: 1 (6.7) n (%) and 1 (6.7%) n (%)
  Lymphopenia, grade ≥3 TEAE: 0 n (%)
  Metabolism and nutrition disorders (SOC), TEAE: 4 (26.7%) n (%)
  Muscle spasms, any grade TEAE: 0 n (%)
  Musculoskeletal and connective tissue disorders (SOC), TEAE: 9 (60.0%) n (%)
  Musculoskeletal and connective tissue disorders (SOC), grade 3 or higher TEAE: 1 (6.7%) n (%)
  Nasopharyngitis, any grade TEAE: 5 (33.3) n (%) and 5 (33.3%) n (%)
  Nausea, any grade TEAE: 3 (20.0) n (%) and 3 (20.0%) n (%)
  Nervous system disorders (SOC), TEAE: 4 (26.7%) n (%)
  Neutropenia, grade ≥3 TEAE: 3 (20.0) n (%) and 3 (20.0%) n (%)
  Oropharyngeal pain, TEAE: 3 (20.0%) n (%)
  Pain in extremity, any grade TEAE: 1 (6.7) n (%) and 1 (6.7%) n (%)
  Patients with a serious TEAE: 6 (40.0%) n (%)
  Peripheral edema, any grade TEAE: 0 n (%)
  Pyrexia, any grade TEAE: 2 (13.3) n (%) and 2 (13.3%) n (%)
  Respiratory, thoracic and mediastinal disorders (SOC), TEAE: 8 (53.3%) n (%)
  Skin and subcutaneous tissue disorders (SOC), TEAE: 5 (33.3%) n (%)
  Vomiting, TEAE: 2 (13.3%) n (%)
2-week taper, general physical health deterioration
  Grade 5 TEAEs: 1 (6.7%) n (%)
